Laboratory results as given in the supplement of paper PMC9112550, “Optimization of the antimicrobial peptide Bac7 by deep mutational scanning” (BMC Biology, 2022).

Tested on: Escherichia coli TOP10
Assay: shrunken log2 fold change of peptide-encoding DNA abundance (4.5 h post-induction vs induction); higher = less antimicrobial activity (less host growth inhibition)
Conditions: time post-induction: 4.5 h; library: site-saturation at positions 5, 18, 19, 20
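Further: peptides expressed intracellularly from a pBAD plasmid library in pooled LB shake-flask culture, induced with 0.3% L-arabinose, DNA abundance read by NGS, three biological replicates, DESeq2 with apeglm shrinkage.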

Sequence: RRIRMRPPRLPRPRPRPHILPRP
- shrunken log2 fold change: 0.113

Sequence: RRIRDRPPRLPRPRPRPSEQPRP
- shrunken log2 fold change: 0.0598

Sequence: RRIRGRPPRLPRPRPRPAPEPRP
- shrunken log2 fold change: 1.34

Sequence: RRIRSRPPRLPRPRPRPTENPRP
- shrunken log2 fold change: 0.148

Sequence: RRIRPRPPRLPRPRPRPQEDPRP
- shrunken log2 fold change: -0.0602

Sequence: RRIRQRPPRLPRPRPRPDTSPRP
- shrunken log2 fold change: 0.00601

Sequence: RRIRRRPPRLPRPRPRPVCGPRP
- shrunken log2 fold change: 0.75

Sequence: RRIRHRPPRLPRPRPRPGTSPRP
- shrunken log2 fold change: -0.0565

Sequence: RRIRARPPRLPRPRPRPDMEPRP
- shrunken log2 fold change: -0.0243

Sequence: RRIRQRPPRLPRPRPRPQRAPRP
- shrunken log2 fold change: 0.224

Sequence: RRIRLRPPRLPRPRPRPNSLPRP
- shrunken log2 fold change: -0.101

Sequence: RRIRERPPRLPRPRPRPSSMPRP
- shrunken log2 fold change: -0.284

Sequence: RRIRHRPPRLPRPRPRPSPLPRP
- shrunken log2 fold change: -0.223

Sequence: RRIRTRPPRLPRPRPRPWLFPRP
- shrunken log2 fold change: 0.212

Sequence: RRIRHRPPRLPRPRPRPYEVPRP
- shrunken log2 fold change: 0.028

Sequence: RRIRFRPPRLPRPRPRPTDIPRP
- shrunken log2 fold change: 0.0284

Sequence: RRIRERPPRLPRPRPRPDCVPRP
- shrunken log2 fold change: -0.191

Sequence: RRIRFRPPRLPRPRPRPHHNPRP
- shrunken log2 fold change: -0.754

Sequence: RRIRRRPPRLPRPRPRPAGNPRP
- shrunken log2 fold change: -0.0218

Sequence: RRIRLRPPRLPRPRPRPYHYPRP
- shrunken log2 fold change: -0.16

Sequence: RRIRRRPPRLPRPRPRPSIMPRP
- shrunken log2 fold change: -0.213

Sequence: RRIRGRPPRLPRPRPRPIPIPRP
- shrunken log2 fold change: 0.0541

Sequence: RRIRDRPPRLPRPRPRPRDSPRP
- shrunken log2 fold change: -0.153

Sequence: RRIRCRPPRLPRPRPRPNCDPRP
- shrunken log2 fold change: -0.233

Sequence: RRIRARPPRLPRPRPRPKSDPRP
- shrunken log2 fold change: 0.239

Sequence: RRIRNRPPRLPRPRPRPEMIPRP
- shrunken log2 fold change: -0.0601

Sequence: RRIRLRPPRLPRPRPRPTWRPRP
- shrunken log2 fold change: 0.337

Sequence: RRIRKRPPRLPRPRPRPVWGPRP
- shrunken log2 fold change: 3.44

Sequence: RRIRARPPRLPRPRPRPDCFPRP
- shrunken log2 fold change: 0.715

Sequence: RRIRARPPRLPRPRPRPQWNPRP
- shrunken log2 fold change: -0.00397

Sequence: RRIRCRPPRLPRPRPRPNPGPRP
- shrunken log2 fold change: -0.0632

Sequence: RRIRIRPPRLPRPRPRPLIHPRP
- shrunken log2 fold change: -0.556

Sequence: RRIRARPPRLPRPRPRPMADPRP
- shrunken log2 fold change: 0.357

Sequence: RRIRLRPPRLPRPRPRPRQAPRP
- shrunken log2 fold change: -0.00965

Sequence: RRIRWRPPRLPRPRPRPKMKPRP
- shrunken log2 fold change: 0.193

Sequence: RRIRSRPPRLPRPRPRPEMGPRP
- shrunken log2 fold change: 0.128

Sequence: RRIRNRPPRLPRPRPRPMMIPRP
- shrunken log2 fold change: -0.0237

Sequence: RRIRSRPPRLPRPRPRPQTIPRP
- shrunken log2 fold change: -0.502

Sequence: RRIRWRPPRLPRPRPRPKEFPRP
- shrunken log2 fold change: -0.228

Sequence: RRIRSRPPRLPRPRPRPISWPRP
- shrunken log2 fold change: -0.186

Sequence: RRIRSRPPRLPRPRPRPCMFPRP
- shrunken log2 fold change: -0.258

Sequence: RRIRKRPPRLPRPRPRPWCIPRP
- shrunken log2 fold change: -0.103

Sequence: RRIRQRPPRLPRPRPRPGSDPRP
- shrunken log2 fold change: 0.337

Sequence: RRIRQRPPRLPRPRPRPFYAPRP
- shrunken log2 fold change: -0.0278

Sequence: RRIRMRPPRLPRPRPRPTNPPRP
- shrunken log2 fold change: 0.149

Sequence: RRIRNRPPRLPRPRPRPKCAPRP
- shrunken log2 fold change: 0.243

Sequence: RRIRCRPPRLPRPRPRPFVAPRP
- shrunken log2 fold change: -0.159

Sequence: RRIRMRPPRLPRPRPRPMMTPRP
- shrunken log2 fold change: 0.141

Sequence: RRIRERPPRLPRPRPRPDEQPRP
- shrunken log2 fold change: -0.00815

Sequence: RRIRWRPPRLPRPRPRPEYAPRP
- shrunken log2 fold change: 0.467

Sequence: RRIRPRPPRLPRPRPRPTKVPRP
- shrunken log2 fold change: -0.0777

Sequence: RRIRERPPRLPRPRPRPHMVPRP
- shrunken log2 fold change: -0.174

Sequence: RRIRSRPPRLPRPRPRPFEWPRP
- shrunken log2 fold change: 0.0589

Sequence: RRIRPRPPRLPRPRPRPQDHPRP
- shrunken log2 fold change: -0.12

Sequence: RRIRYRPPRLPRPRPRPISTPRP
- shrunken log2 fold change: -0.0632

Sequence: RRIRIRPPRLPRPRPRPVMWPRP
- shrunken log2 fold change: -0.0605

Sequence: RRIRMRPPRLPRPRPRPDTCPRP
- shrunken log2 fold change: 1.25

Sequence: RRIRWRPPRLPRPRPRPDFPPRP
- shrunken log2 fold change: -0.0386

Sequence: RRIRARPPRLPRPRPRPLKAPRP
- shrunken log2 fold change: 0.16

Sequence: RRIRHRPPRLPRPRPRPVHYPRP
- shrunken log2 fold change: -0.495

Sequence: RRIRTRPPRLPRPRPRPKYHPRP
- shrunken log2 fold change: -0.243

Sequence: RRIRGRPPRLPRPRPRPSVEPRP
- shrunken log2 fold change: 0.651

Sequence: RRIRARPPRLPRPRPRPPKQPRP
- shrunken log2 fold change: 0.0504

Sequence: RRIRQRPPRLPRPRPRPMNWPRP
- shrunken log2 fold change: -0.0581

Sequence: RRIRCRPPRLPRPRPRPPTWPRP
- shrunken log2 fold change: 0.0486

Sequence: RRIRLRPPRLPRPRPRPNLGPRP
- shrunken log2 fold change: -0.0507

Sequence: RRIRRRPPRLPRPRPRPPCIPRP
- shrunken log2 fold change: 0.156

Sequence: RRIRPRPPRLPRPRPRPPWYPRP
- shrunken log2 fold change: -0.195

Sequence: RRIRRRPPRLPRPRPRPYQFPRP
- shrunken log2 fold change: 0.0273

Sequence: RRIRRRPPRLPRPRPRPEHPPRP
- shrunken log2 fold change: 3.32

Sequence: RRIRVRPPRLPRPRPRPELPPRP
- shrunken log2 fold change: -0.0996

Sequence: RRIRGRPPRLPRPRPRPKAEPRP
- shrunken log2 fold change: 1.35

Sequence: RRIRPRPPRLPRPRPRPMRKPRP
- shrunken log2 fold change: 0.365

Sequence: RRIRCRPPRLPRPRPRPFFSPRP
- shrunken log2 fold change: -0.242

Sequence: RRIRCRPPRLPRPRPRPACKPRP
- shrunken log2 fold change: -0.312

Sequence: RRIRYRPPRLPRPRPRPMDLPRP
- shrunken log2 fold change: -0.0912

Sequence: RRIRLRPPRLPRPRPRPEMAPRP
- shrunken log2 fold change: 0.113

Sequence: RRIRPRPPRLPRPRPRPFRYPRP
- shrunken log2 fold change: -0.0865

Sequence: RRIRKRPPRLPRPRPRPRDTPRP
- shrunken log2 fold change: 0.258

Sequence: RRIRTRPPRLPRPRPRPSLCPRP
- shrunken log2 fold change: -0.0129

Sequence: RRIRRRPPRLPRPRPRPDCLPRP
- shrunken log2 fold change: -0.136

Sequence: RRIRERPPRLPRPRPRPEMCPRP
- shrunken log2 fold change: -0.0143

Sequence: RRIRYRPPRLPRPRPRPGCHPRP
- shrunken log2 fold change: -0.711

Sequence: RRIRDRPPRLPRPRPRPEISPRP
- shrunken log2 fold change: 0.134

Sequence: RRIRKRPPRLPRPRPRPFRQPRP
- shrunken log2 fold change: -0.0695

Sequence: RRIRVRPPRLPRPRPRPLNMPRP
- shrunken log2 fold change: -1.14

Sequence: RRIRWRPPRLPRPRPRPRQFPRP
- shrunken log2 fold change: 0.0819

Sequence: RRIRRRPPRLPRPRPRPNVTPRP
- shrunken log2 fold change: 0.0871

Sequence: RRIRWRPPRLPRPRPRPIAYPRP
- shrunken log2 fold change: 0.000575

Sequence: RRIRQRPPRLPRPRPRPVPFPRP
- shrunken log2 fold change: -0.374

Sequence: RRIRERPPRLPRPRPRPWRPPRP
- shrunken log2 fold change: 0.0707

Sequence: RRIRIRPPRLPRPRPRPSYVPRP
- shrunken log2 fold change: -1.22

Sequence: RRIRTRPPRLPRPRPRPKFPPRP
- shrunken log2 fold change: -0.0959

Sequence: RRIRLRPPRLPRPRPRPLDNPRP
- shrunken log2 fold change: -0.293

Sequence: RRIRHRPPRLPRPRPRPMKDPRP
- shrunken log2 fold change: -0.778

Sequence: RRIRERPPRLPRPRPRPPMLPRP
- shrunken log2 fold change: 1.29

Sequence: RRIRFRPPRLPRPRPRPQHSPRP
- shrunken log2 fold change: -0.347

Sequence: RRIRHRPPRLPRPRPRPWVRPRP
- shrunken log2 fold change: 0.0215

Sequence: RRIRTRPPRLPRPRPRPTRRPRP
- shrunken log2 fold change: 0.71

Sequence: RRIRTRPPRLPRPRPRPMCEPRP
- shrunken log2 fold change: 0.0422

Sequence: RRIRCRPPRLPRPRPRPMFVPRP
- shrunken log2 fold change: -0.261

Sequence: RRIRNRPPRLPRPRPRPLVWPRP
- shrunken log2 fold change: 0.124

Sequence: RRIRSRPPRLPRPRPRPVDIPRP
- shrunken log2 fold change: 0.147

Sequence: RRIRYRPPRLPRPRPRPPRQPRP
- shrunken log2 fold change: 0.0146

Sequence: RRIRMRPPRLPRPRPRPADTPRP
- shrunken log2 fold change: 0.367

Sequence: RRIRPRPPRLPRPRPRPDGFPRP
- shrunken log2 fold change: -0.0011

Sequence: RRIRSRPPRLPRPRPRPHWDPRP
- shrunken log2 fold change: 0.00395

Sequence: RRIRPRPPRLPRPRPRPIWHPRP
- shrunken log2 fold change: -0.0776

Sequence: RRIRSRPPRLPRPRPRPFQWPRP
- shrunken log2 fold change: 0.319

Sequence: RRIRHRPPRLPRPRPRPFEKPRP
- shrunken log2 fold change: -0.0199

Sequence: RRIRTRPPRLPRPRPRPDRWPRP
- shrunken log2 fold change: 0.0353

Sequence: RRIRIRPPRLPRPRPRPICRPRP
- shrunken log2 fold change: -0.107

Sequence: RRIRPRPPRLPRPRPRPFMWPRP
- shrunken log2 fold change: -0.168

Sequence: RRIRGRPPRLPRPRPRPQFRPRP
- shrunken log2 fold change: 0.0341

Sequence: RRIRHRPPRLPRPRPRPPYKPRP
- shrunken log2 fold change: -0.31

Sequence: RRIRDRPPRLPRPRPRPSHLPRP
- shrunken log2 fold change: -0.248

Sequence: RRIRKRPPRLPRPRPRPLEAPRP
- shrunken log2 fold change: 0.505

Sequence: RRIRIRPPRLPRPRPRPQMAPRP
- shrunken log2 fold change: -0.064

Sequence: RRIRRRPPRLPRPRPRPYEFPRP
- shrunken log2 fold change: -0.187

Sequence: RRIRTRPPRLPRPRPRPVSDPRP
- shrunken log2 fold change: -0.114

Sequence: RRIRLRPPRLPRPRPRPVSKPRP
- shrunken log2 fold change: -0.181

Sequence: RRIRYRPPRLPRPRPRPHVLPRP
- shrunken log2 fold change: -0.0311

Sequence: RRIRHRPPRLPRPRPRPAPPPRP
- shrunken log2 fold change: 0.854

Sequence: RRIRARPPRLPRPRPRPCFLPRP
- shrunken log2 fold change: -0.24

Sequence: RRIRIRPPRLPRPRPRPARKPRP
- shrunken log2 fold change: 0.462
